Like-named read-outs stand apart in the source and are kept apart here.
Key:
human FcγRIa = molecular target: T1, human FcγRIa (human, UniProt P12314 16-292); test: SPR (Biacore T200, pH 7.4, 25 °C): His-tagged FcγR captured by anti-His antibody; antibody injected at 100 nM alone (Ab alone) or as 1:1 complex with trimeric CD154 (CD154 IC); binding level / capture level [A]
T1 construct: also called human FcγR1a

mouse FcγRIII = molecular target: T2, mouse FcγRIII (mouse, UniProt P08508 31-215); test: SPR (Biacore T200, pH 7.4, 25 °C): His-tagged FcγR captured by anti-His antibody; antibody injected at 100 nM alone (Ab alone) or as 1:1 complex with trimeric CD154 (CD154 IC); binding level / capture level [C]
T2 construct: also called mFcγRIII; mouse FcγR3
T2 chain: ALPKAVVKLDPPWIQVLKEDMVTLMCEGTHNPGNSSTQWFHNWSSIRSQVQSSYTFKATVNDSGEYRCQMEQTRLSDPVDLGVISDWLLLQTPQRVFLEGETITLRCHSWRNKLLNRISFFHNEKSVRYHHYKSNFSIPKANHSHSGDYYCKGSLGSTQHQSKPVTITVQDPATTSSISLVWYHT

mouse FcγRI = molecular target: T3, mouse FcγRI (mouse, UniProt P26151 25-297); test: SPR (Biacore T200, pH 7.4, 25 °C): His-tagged FcγR captured by anti-His antibody; antibody injected at 100 nM alone (Ab alone) or as 1:1 complex with trimeric CD154 (CD154 IC); binding level / capture level [A]
T3 construct: also called mFcγRI; mouse FcγR1
T3 sequence: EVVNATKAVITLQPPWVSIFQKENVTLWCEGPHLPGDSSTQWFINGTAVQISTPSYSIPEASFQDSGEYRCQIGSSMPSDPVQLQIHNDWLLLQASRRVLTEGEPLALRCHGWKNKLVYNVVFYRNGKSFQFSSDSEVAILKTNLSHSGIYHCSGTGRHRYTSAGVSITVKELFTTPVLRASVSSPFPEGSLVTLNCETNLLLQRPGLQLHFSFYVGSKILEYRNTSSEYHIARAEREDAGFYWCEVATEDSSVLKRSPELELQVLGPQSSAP

human FcγRIIIa (158V) = molecular target: T4, human FcγRIIIa (158V) (human, UniProt P08637 17-208); test: SPR (Biacore T200, pH 7.4, 25 °C): His-tagged FcγR captured by anti-His antibody; antibody injected at 100 nM alone (Ab alone) or as 1:1 complex with trimeric CD154 (CD154 IC); binding level / capture level [F]
T4 construct: also called human FcγR3a allelic variant 158V

human FcγRIIIa (158F) = molecular target: T5, human FcγRIIIa (158F) (human, UniProt P08637 17-208); test: SPR (Biacore T200, pH 7.4, 25 °C): His-tagged FcγR captured by anti-His antibody; antibody injected at 100 nM alone (Ab alone) or as 1:1 complex with trimeric CD154 (CD154 IC); binding level / capture level [E]
T5 construct: also called human FcγR3a allelic variant 158F

human FcγRIIIb (NA1) = molecular target: T6, human FcγRIIIb (NA1) (human, UniProt O75015 17-200); test: SPR (Biacore T200, pH 7.4, 25 °C): His-tagged FcγR captured by anti-His antibody; antibody injected at 100 nM alone (Ab alone) or as 1:1 complex with trimeric CD154 (CD154 IC); binding level / capture level [G]
T6 construct: also called human FcγR3b allelic variant NA1
T6 chain: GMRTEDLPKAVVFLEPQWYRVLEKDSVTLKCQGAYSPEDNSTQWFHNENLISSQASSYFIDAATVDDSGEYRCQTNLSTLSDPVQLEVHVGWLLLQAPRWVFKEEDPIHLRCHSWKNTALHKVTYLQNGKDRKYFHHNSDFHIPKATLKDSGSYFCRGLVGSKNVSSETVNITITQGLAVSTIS

human FcγRIIb = molecular target: T7, human FcγRIIb (human, UniProt P31994 43-217); test: SPR (Biacore T200, pH 7.4, 25 °C): His-tagged FcγR captured by anti-His antibody; antibody injected at 100 nM alone (Ab alone) or as 1:1 complex with trimeric CD154 (CD154 IC); binding level / capture level [D]
T7 construct: also called human FcγR2b
T7 sequence: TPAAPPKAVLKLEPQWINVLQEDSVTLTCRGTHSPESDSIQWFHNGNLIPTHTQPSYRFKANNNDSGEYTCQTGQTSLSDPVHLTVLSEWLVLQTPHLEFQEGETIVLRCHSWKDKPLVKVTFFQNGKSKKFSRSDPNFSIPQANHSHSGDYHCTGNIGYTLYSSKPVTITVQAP

mouse FcγRIV = molecular target: T8, mouse FcγRIV (mouse, UniProt A0A0B4J1G0 21-203); test: as above
T8 construct: also called mFcγRIV; mouse FcγR4
T8 sequence: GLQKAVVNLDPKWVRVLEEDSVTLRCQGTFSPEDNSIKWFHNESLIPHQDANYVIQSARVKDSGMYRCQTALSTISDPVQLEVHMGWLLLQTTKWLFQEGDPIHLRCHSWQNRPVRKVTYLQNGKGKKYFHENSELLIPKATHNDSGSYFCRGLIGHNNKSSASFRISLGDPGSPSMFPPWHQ

human C1q (Calbiochem) [1] = molecular target: T9, human C1q (Calbiochem) (human, UniProt P02745 23-245; P02746 28-253; P02747 29-245); test: ELISA: antibody coated on the plate at the concentration shown, human C1q added, detected with HRP anti-human C1q, OD 450 nm
T9 sequence (P02745 23-245 limits assumed, chain 1 of 3): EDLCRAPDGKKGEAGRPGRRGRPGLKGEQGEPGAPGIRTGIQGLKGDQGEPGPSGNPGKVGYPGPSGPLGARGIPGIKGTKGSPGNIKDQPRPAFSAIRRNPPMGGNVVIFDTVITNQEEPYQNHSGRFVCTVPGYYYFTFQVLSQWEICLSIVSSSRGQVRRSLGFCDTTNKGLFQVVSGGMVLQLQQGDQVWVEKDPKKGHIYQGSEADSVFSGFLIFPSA
T9 sequence (P02746 28-253 limits assumed, chain 2 of 3): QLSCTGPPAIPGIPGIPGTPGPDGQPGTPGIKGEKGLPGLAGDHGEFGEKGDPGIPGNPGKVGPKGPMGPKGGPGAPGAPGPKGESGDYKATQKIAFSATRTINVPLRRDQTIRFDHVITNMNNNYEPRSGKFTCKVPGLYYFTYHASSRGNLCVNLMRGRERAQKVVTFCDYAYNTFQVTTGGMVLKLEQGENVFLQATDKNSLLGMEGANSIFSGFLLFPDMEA
T9 sequence (P02747 29-245 limits assumed, chain 3 of 3): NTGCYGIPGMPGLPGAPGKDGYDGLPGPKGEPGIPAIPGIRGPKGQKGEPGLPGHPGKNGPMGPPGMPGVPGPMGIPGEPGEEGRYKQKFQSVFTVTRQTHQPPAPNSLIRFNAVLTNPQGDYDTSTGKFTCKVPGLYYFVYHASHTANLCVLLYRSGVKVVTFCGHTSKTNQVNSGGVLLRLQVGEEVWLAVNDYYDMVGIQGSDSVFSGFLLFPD

human FcγRIIIb (NA2) = molecular target: T10, human FcγRIIIb (NA2) (human, UniProt O75015 17-200); test: SPR (Biacore T200, pH 7.4, 25 °C): His-tagged FcγR captured by anti-His antibody; antibody injected at 100 nM alone (Ab alone) or as 1:1 complex with trimeric CD154 (CD154 IC); binding level / capture level [H]
T10 construct: also called human FcγR3b allelic variant NA2
T10 chain: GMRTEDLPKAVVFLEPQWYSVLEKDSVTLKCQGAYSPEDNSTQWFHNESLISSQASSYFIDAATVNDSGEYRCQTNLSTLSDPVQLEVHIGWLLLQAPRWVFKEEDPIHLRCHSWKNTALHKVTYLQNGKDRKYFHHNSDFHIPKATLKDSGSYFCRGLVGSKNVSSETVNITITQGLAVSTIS

human C1q (Calbiochem) [2] = molecular target: T9, human C1q (Calbiochem); test: ELISA: antibody coated on the plate at the concentration shown, human C1q added, detected with HRP anti-human C1q, OD 450 nm; remark: listed apart in the source
mouse FcγRIIb = molecular target: T11, mouse FcγRIIb (mouse, UniProt P08101 30-210); test: SPR (Biacore T200, pH 7.4, 25 °C): His-tagged FcγR captured by anti-His antibody; antibody injected at 100 nM alone (Ab alone) or as 1:1 complex with trimeric CD154 (CD154 IC); binding level / capture level [B]
T11 construct: also called mFcγRIIb; mouse FcγR2b
T11 sequence: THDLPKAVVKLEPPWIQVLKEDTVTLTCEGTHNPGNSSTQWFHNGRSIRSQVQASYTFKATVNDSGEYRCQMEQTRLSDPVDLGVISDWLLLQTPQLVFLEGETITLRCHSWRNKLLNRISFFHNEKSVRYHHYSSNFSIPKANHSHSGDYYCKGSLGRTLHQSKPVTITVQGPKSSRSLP

T1 sequence (P12314 16-292 limits assumed): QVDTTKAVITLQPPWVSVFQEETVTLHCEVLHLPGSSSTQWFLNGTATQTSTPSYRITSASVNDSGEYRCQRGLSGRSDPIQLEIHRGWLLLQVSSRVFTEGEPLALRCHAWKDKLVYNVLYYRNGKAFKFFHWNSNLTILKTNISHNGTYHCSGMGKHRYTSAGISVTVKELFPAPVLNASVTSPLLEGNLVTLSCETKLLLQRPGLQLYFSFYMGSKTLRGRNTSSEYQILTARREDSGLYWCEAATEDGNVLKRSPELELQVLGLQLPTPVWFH

Row | Binder | binding result (human FcγRIa) | binding result (mouse FcγRIII) | binding result (mouse FcγRI) | binding result (human FcγRIIIa (158V)) | binding result (human FcγRIIIa (158F)) | binding result (human FcγRIIIb (NA1)) | binding result (human FcγRIIb) | binding result (mouse FcγRIV) | EC50 (read off the curve) (human C1q (Calbiochem) [1]) [µg/mL] | binding result (human FcγRIIIb (NA2)) | EC50 (read off the curve) (human C1q (Calbiochem) [2]) [µg/mL] | binding result (mouse FcγRIIb)
1 | Anti-CD154 antibody (SLAPH0336a/SLAPL0336a) with Fc variant LALA+EFT (SG1090) (antibody, human IgG1, kappa, L234A L235A) heavy: EVQLVESGGGSVKPGGSLKLSCAASGFTFSDHYMYWVRQTPEKRLEWVAIISGGGSYTSYPDSMKGRFTISRDNAKNILHLQMSSLKSEDTAMYYCTRESNGKPGFAYWGQGTLVTVSAASTKGPSVFPLAPSSKSTSGGTAALGCLVKDYFPEPVTVSWNSGALTSGVHTFPAVLQSSGLYSLSSVVTVPSSSLGTQTYICNVNHKPSNTKVDKRVEPKSCDKTHTCPPCPAPEAAGGPSVFLFPPKPKDTLMISRTPEVTCVVVDVEFEDPEVKFNWYVDGVEVHNAKTKPREEQYNSTYRVVSVLTVLHQDWLNGKEYKCKVTNKALPAPIEKTISKAKGQPREPQVYTLPPSREEMTKNQVSLTCLVKGFYPSDIAVEWESNGQPENNYKTTPPVLDSDGSFFLYSKLTVDKSRWQQGNVFSCSVMHEALHNHYTQKSLSLSP light: not shown | binds | binds | no binding (tested: 100 nM) | binds | no binding (tested: 100 nM) | no binding (tested: 100 nM) | binds | no binding (tested: 100 nM) | ~2 | no binding (tested: 100 nM) |  | 
2 | Anti-CD154 antibody (SLAPH0336a/SLAPL0336a) with Fc variant LALA+EFT+AE (SG1089) (antibody, human IgG1, kappa) heavy: EVQLVESGGGSVKPGGSLKLSCAASGFTFSDHYMYWVRQTPEKRLEWVAIISGGGSYTSYPDSMKGRFTISRDNAKNILHLQMSSLKSEDTAMYYCTRESNGKPGFAYWGQGTLVTVSAASTKGPSVFPLAPSSKSTSGGTAALGCLVKDYFPEPVTVSWNSGALTSGVHTFPAVLQSSGLYSLSSVVTVPSSSLGTQTYICNVNHKPSNTKVDKRVEPKSCDKTHTCPPCPAPEAAAGPSVFLFPPKPKDTLMISRTPEVTCVVVDVEFEDPEVKFNWYVDGVEVHNAKTKPREEQYNSTYRVVSVLTVLHQDWLNGKEYKCKVTNKALPAPEEKTISKAKGQPREPQVYTLPPSREEMTKNQVSLTCLVKGFYPSDIAVEWESNGQPENNYKTTPPVLDSDGSFFLYSKLTVDKSRWQQGNVFSCSVMHEALHNHYTQKSLSLSP light: not shown | binds | binds | no binding (tested: 100 nM) | binds |  | no binding (tested: 100 nM) | binds | binds | ~3 |  |  | 
3 | Anti-CD154 antibody (SLAPH0336a/SLAPL0336a) with Fc variant LALA+KWES (SG1088) (antibody, human IgG1, kappa, L234A L235A) heavy: EVQLVESGGGSVKPGGSLKLSCAASGFTFSDHYMYWVRQTPEKRLEWVAIISGGGSYTSYPDSMKGRFTISRDNAKNILHLQMSSLKSEDTAMYYCTRESNGKPGFAYWGQGTLVTVSAASTKGPSVFPLAPSSKSTSGGTAALGCLVKDYFPEPVTVSWNSGALTSGVHTFPAVLQSSGLYSLSSVVTVPSSSLGTQTYICNVNHKPSNTKVDKRVEPKSCDKTHTCPPCPAPEAAGGPSVFLFPPKPKDTLMISRTPEVTCVVVDVSHEDPEVKFNWYVDGVEVHNAKTKPREEQYNSTYRVVSVLTVLHQDWLNGKEYKCKVSNWALPAPISKTISKAKGQPREPQVYTLPPSREEMTKNQVSLTCLVKGFYPSDIAVEWESNGQPENNYKTTPPVLDSDGSFFLYSKLTVDKSRWQQGNVFSCSVMHEALHNHYTQKSLSLSP light: not shown | binds |  |  |  |  |  |  |  | ~2 |  | ~3 | 
4 | EFT+AE (antibody, human IgG1, kappa, also called Anti-CD154 antibody (SLAPH0336a/SLAPL0336a) with Fc variant EFT+AE (SG1086); SG1086) heavy chain: EVQLVESGGGSVKPGGSLKLSCAASGFTFSDHYMYWVRQTPEKRLEWVAIISGGGSYTSYPDSMKGRFTISRDNAKNILHLQMSSLKSEDTAMYYCTRESNGKPGFAYWGQGTLVTVSAASTKGPSVFPLAPSSKSTSGGTAALGCLVKDYFPEPVTVSWNSGALTSGVHTFPAVLQSSGLYSLSSVVTVPSSSLGTQTYICNVNHKPSNTKVDKRVEPKSCDKTHTCPPCPAPELLAGPSVFLFPPKPKDTLMISRTPEVTCVVVDVEFEDPEVKFNWYVDGVEVHNAKTKPREEQYNSTYRVVSVLTVLHQDWLNGKEYKCKVTNKALPAPEEKTISKAKGQPREPQVYTLPPSREEMTKNQVSLTCLVKGFYPSDIAVEWESNGQPENNYKTTPPVLDSDGSFFLYSKLTVDKSRWQQGNVFSCSVMHEALHNHYTQKSLSLSP light chain: not shown | binds | binds | binds | binds | binds |  | binds | binds |  | binds |  | binds
